Measurements taken from paper PMC6145688 (2018).

B1: SDC4-derived peptide VS52 (protein)
chain: VHPLVPLDNHIPERAGSGSQVPTEPKKLEENEVIPKRISPVEESEDVSNKVS

molecular target: Recombinant active autotaxin-β (ATXβ) (Homo sapiens (Human), UniProt Q13822); experiment: SPR

Binding result, no binding:
RETEVIDPQDLLEGRYFSGALPDDED (protein) [SDC4-derived peptide RD26]
B1
GALPDDEDVVGPGQESDDFEL (protein) [SDC4-derived peptide GL21]
